We go through 16 sequences from the nanobody polyreactivity screen of Harvey et al. (2022).

This series in a line: yeast display, Sf9 membrane polyspecificity reagent, FACS + sequencing; frameworks hold sequencing errors. Summed up: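 Genes from sorted yeast were amplified by colony PCR, read by MiSeq 2 × 250 sequencing and filtered on CDR length. These cells carried a synthetic nanobody library in Saccharomyces cerevisiae BJ5465 and were sorted by FACS into low and high (top ~1%) gates on anti-HA and streptavidin fluorescence. Polyreactivity is labelled according to the gate of origin.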
Consider “QVQLVESGGGLVQAGGSLRLSCAASGSIFGYYAMGWYRQAPGKERELVAAISGSGGSTYYADSVKGRFTMSRDNAKNTVYLQMNSLKPEDTAVYYCARVRGGYDKMYYWGQGTQVTVSS”, for which the “polyreactivity (PSR sort gate)” value is recorded as “high polyreactivity”.
The result for “QVQLVESGGGLVQAGGSLRLSCAASGSIFGYYAMGWYRQAPGKERELVAAISSSGASTYYADSVKGRFTISRDNAKNTVYLQMNSLKPEDTAVYYCNAARRYPTRGGYWGQGTQVTVSS” reads “high polyreactivity”; that for “QVQLVESGGGLVQAGGSLRLSCAASGSIFGYYAMGWYRQTPGKERELVAAIRWRGGRTYYADSVKGRFTISRDNAKNTVYLQMNSLKPEDTAVYYCNTRRTGRRSTTPGDYWGQGTQVTVSS”, “high polyreactivity”.
On to “QVQLVESGGGLVQAGGSLRLSCAASGSIFGYYSMGCYRQAPGKERELVATITFGGGSTYYADSVKGRFTISRDNAKNTVYLQMNSLKPEDTAVYYCAADSGYLGFYGDEYSWGQGTQVTVSS”, for which the “polyreactivity (PSR sort gate)” value was “low polyreactivity”.
As for “QVQLVESGGGLVQAGGSLRLSCAASGSIFGYYSMGWYRQAPGKERELVASITSGDSTNYADSVKGRFTISRDNAKNTVYLQMNSLKPEDTAVDYCNTERGYYDEYDYWGQGTQVTVSS”, the “polyreactivity (PSR sort gate)” value is reported as “low polyreactivity”.
Turning to “QVQLVESGGGLVQAGGSLRLSCAASGSIFGYYTMGWYRQAPGKERELVAAISKNGGSTYYADSVKGRFTISRDNAKNTVYLQMNSLKPEDTAVYYCAAEYTRKGVSGSGYDYWGQGTQVTVSS”, the “polyreactivity (PSR sort gate)” value is recorded as “low polyreactivity”.
In the case of “QVQLVESGGGLVQAGGSLRLSCAASGSIFGYYTMGWYRQAPGKERELVAAISSSGGRTYYADSVKGRFTISRDNAKNTVYLQLNSLKPEDTAVYYCAAVPIKRGLILGDRGYNYWGQGTQVTVSS” it was “high polyreactivity”.
The result for “QVQLVESGGGLVQAGGSLRLSCAASGSIFHDYAMGWYRQAPGKEREMVAAIRWSGGSTYYADSVKGRFTISRDNAKNTVYLQMNSLKREETAVYYCNAVTFGRDNVQLVKFGYWGQGTQVTVSS” reads “low polyreactivity”; that for “QVQLVESGGGLVQAGGSLRLSCAASGSIFHFYAMGWYRQAPGKERELVAAITSGTSTYYADSVKGRFTISRDNAKNTVFLQMNSLKPEDTAVYYCAAEASHYYYNAYPSYGGSDYWGQGTQVTVSS”, “low polyreactivity”.
Consider “QVQLVESGGGLVQAGGSLRLSCAASGSIFHGYAMGWYRQAPGKERELVAAISKSGGRTYYADSVKGRFTISRDNAKNTVYLQMNSLKPEDTAVYYCAAPATYKYDYWGQGTQVTVSS”, for which the “polyreactivity (PSR sort gate)” value is recorded as “high polyreactivity”.
In the case of “QVQLVESGGGLVQAGGSLRLSCAASGSIFHGYAMGWYRTAPGKERELVAAISYTGGRTYYADSVKGRFTISRDNAMNTVYLQMNSLKPEDTAVYYCAAHDYWGQGTQVTVSS” it was “high polyreactivity”; in that of “QVQLVESGGGLVQAGGSLRLSCAASGSIFHKNAMGWYIQAPGKERELVARITSSSGSTYYADSVKGRFTISRDNAKNTVYLQMNSLKPEDTAVYYCNASPTTTPNFWRYDYWGQGTQVTVSS”, “high polyreactivity”; in that of “QVQLVESGGGLVQAGGSLRLSCAASGSIFHLYAMGWYRQATGKERELVAAISWSGGSTYYADSVKGRFTISRDNAKNTVYLQMNSLKPEDTAVYYCAAEYYYQFYDYPYGYEYWGQGTQVTVSS”, “high polyreactivity”.
As for “QVQLVESGGGLVQAGGSLRLSCAASGSIFHPNAMGWYRQAPGKERELVAAITQSGATTYYADSVKGRFTISRDNAKNTVYLQMNSLKPEDTAVYYCAAEFTYGHHDYWGQGTQVTVSS”, the “polyreactivity (PSR sort gate)” value is reported as “low polyreactivity”.
The result for “QVQLVESGGGLVQAGGSLRLSCAASGSIFHPYAMGWSRQAPGKERELVASISKRGGSTYYADSVKGRFTISRDNAKNTVYLQMNSLKPEDTAVYYCAKLYTIGYDYWGQGTQVTVSS” reads “low polyreactivity”; that for “QVQLVESGGGLVQAGGSLRLSCAASGSIFHTYAMGWYIQAPGKERELVAAITVSGGDTYYADSVKGRFTISRDNEKNNVYLQMNSLKPEDTAVYYCAVDTTTSYTVAYDYWGQGTQVSVSS”, “low polyreactivity”.
